According to patent publication US20180148504A1 (EISAI R AND D MANAGEMENT, published 2018):

Tests used:
[1] = molecular target: T1, recombinant purified FRα (ECL assay calibrator) (human, UniProt P15328 25-234); assay: ECL sandwich on FRα, signal to background; capture 28H12.G9; binder = detection Ab
T1 construct: Calibrator of the ECL sandwich assays; also called FRα calibrator; FRα standard

[2] = molecular target: T1, recombinant purified FRα (ECL assay …); assay: ECL sandwich, FRα calibrator; capture 19D2.G9; binder = detection Ab
[3] = molecular target: T1, recombinant purified FRα (ECL assay …); assay: ECL sandwich, FRα calibrator; capture 26A9.C4; binder = detection Ab
[4] = molecular target: T1, recombinant purified FRα (ECL assay …); assay: ECL sandwich, FRα calibrator; capture 24H8.F3; binder = detection Ab
[5] = molecular target: T1, recombinant purified FRα (ECL assay …); assay: ECL sandwich on FRα, signal to background; capture 24H8.D3; binder = detection Ab
[6] = molecular target: T1, recombinant purified FRα (ECL assay …); assay: ECL sandwich on FRα, signal to background; capture 24H8.F3; binder = detection Ab
[7] = molecular target: T1, recombinant purified FRα (ECL assay …); assay: ECL sandwich, FRα calibrator; capture 5C12.H8; binder = detection Ab
[8] = molecular target: T1, recombinant purified FRα (ECL assay …); assay: ECL sandwich, FRα calibrator; capture 28H12.G9; binder = detection Ab
[9] = molecular target: T1, recombinant purified FRα (ECL assay …); assay: ECL sandwich on FRα, signal to background; capture 1C6.E12.G8; binder = detection Ab
[10] = molecular target: T1, recombinant purified FRα (ECL assay …); assay: ECL sandwich on FRα, signal to background; capture 1D2.G8.G10; binder = detection Ab
[11] = molecular target: T2, human folate receptor beta (FRβ), recombinant, C-terminal 6xHis (human, UniProt P14207 17-230, limits assumed); assay: direct ELISA, plates coated with 1 µg/mL FR isoform, dilution series of culture supernatant
T2 construct: Transiently expressed in 293F cells and purified; coated on ELISA plates

[12] = molecular target: T3, human folate receptor gamma (FRγ), recombinant, C-terminal 6xHis (human, UniProt P41439 23-245, limits assumed); assay: as above
T3 construct: Transiently expressed in 293F cells and purified; coated on ELISA plates

[13] = molecular target: T1, recombinant purified FRα (ECL assay …); assay: ECL sandwich, FRα calibrator; capture 30G6.G6.G4.E9; binder = detection Ab
[14] = molecular target: T1, recombinant purified FRα (ECL assay …); assay: ECL sandwich on FRα, signal to background; capture 30G6.G6.G4.E9; binder = detection Ab
[15] = molecular target: T1, recombinant purified FRα (ECL assay …); assay: ECL sandwich on FRα, signal to background; capture 2F11.F8; binder = detection Ab
[16] = molecular target: T1, recombinant purified FRα (ECL assay …); assay: ECL sandwich, FRα calibrator; capture 1D2.G8.G10; binder = detection Ab
[17] = molecular target: T1, recombinant purified FRα (ECL assay …); assay: ECL sandwich, FRα calibrator; capture 2F11.F8; binder = detection Ab
[18] = molecular target: T1, recombinant purified FRα (ECL assay …); assay: ECL sandwich on FRα, signal to background; capture 1A8.G11.E7; binder = detection Ab
[19] = molecular target: T1, recombinant purified FRα (ECL assay …); assay: ECL sandwich on FRα, signal to background; capture 6A2.G7; binder = detection Ab
[20] = molecular target: T1, recombinant purified FRα (ECL assay …); assay: ECL sandwich on FRα, signal to background; capture 26A9.C4; binder = detection Ab
[21] = molecular target: T1, recombinant purified FRα (ECL assay …); assay: ECL sandwich, FRα calibrator; capture 24H8.D3; binder = detection Ab
[22] = molecular target: T1, recombinant purified FRα (ECL assay …); assay: ECL sandwich, FRα calibrator; capture 1A8.G11.E7; binder = detection Ab
[23] = molecular target: T4, recombinant human folate receptor alpha (rhFRα) (human, UniProt P15328 25-234); assay: BIAcore (SPR), format not described
T4 construct: CHO: Ig kappa leader, C-terminal 6xHis replacing the GPI attachment site; also called FOLR1; FOLR-1

[24] = molecular target: T1, recombinant purified FRα (ECL assay …); assay: ECL sandwich on FRα, signal to background; capture 5C12.H8; binder = detection Ab
[25] = molecular target: T1, recombinant purified FRα (ECL assay …); assay: ECL sandwich, FRα calibrator; capture 19D4.B7; binder = detection Ab
[26] = molecular target: T1, recombinant purified FRα (ECL assay …); assay: ECL sandwich on FRα, signal to background; capture 19D2.G9; binder = detection Ab
[27] = molecular target: T1, recombinant purified FRα (ECL assay …); assay: ECL sandwich, FRα calibrator; capture 6A2.G7; binder = detection Ab
[28] = molecular target: T1, recombinant purified FRα (ECL assay …); assay: ECL sandwich, FRα calibrator; capture 1C6.E12.G8; binder = detection Ab
[29] = molecular target: T1, recombinant purified FRα (ECL assay …); assay: ECL sandwich on FRα, signal to background; capture 19D4.B7; binder = detection Ab

T3 sequence (P41439 other isoform, or with tags, fused parts or gaps limits assumed): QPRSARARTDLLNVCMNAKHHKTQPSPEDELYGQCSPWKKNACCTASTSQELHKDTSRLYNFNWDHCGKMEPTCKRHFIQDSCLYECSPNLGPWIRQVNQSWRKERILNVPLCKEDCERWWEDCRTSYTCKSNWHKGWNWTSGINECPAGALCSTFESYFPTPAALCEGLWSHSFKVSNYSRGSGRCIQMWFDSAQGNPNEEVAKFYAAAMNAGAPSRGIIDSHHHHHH
T2 sequence (P14207 other isoform, or with tags, fused parts or gaps limits assumed): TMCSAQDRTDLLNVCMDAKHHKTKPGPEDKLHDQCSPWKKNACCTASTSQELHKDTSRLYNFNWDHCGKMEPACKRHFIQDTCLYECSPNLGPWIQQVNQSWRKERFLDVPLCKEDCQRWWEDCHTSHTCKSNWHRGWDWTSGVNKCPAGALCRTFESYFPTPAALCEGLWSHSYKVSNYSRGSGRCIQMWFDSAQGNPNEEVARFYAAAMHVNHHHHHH
T1 sequence (P15328 25-234 limits assumed): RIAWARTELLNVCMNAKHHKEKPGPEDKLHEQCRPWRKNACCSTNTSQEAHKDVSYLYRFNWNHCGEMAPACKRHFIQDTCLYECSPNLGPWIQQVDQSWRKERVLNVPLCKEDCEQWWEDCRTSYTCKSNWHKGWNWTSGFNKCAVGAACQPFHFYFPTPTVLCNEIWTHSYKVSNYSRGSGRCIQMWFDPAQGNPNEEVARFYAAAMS
T4 sequence (P15328 25-234 limits assumed): as above

Row | Binder | Average of S/B [1] | Specific signal at 500 pg/mL [2] | Specific signal at 500 pg/mL [3] | Specific signal at 500 pg/mL [4] | Average of S/B [5] | Average of S/B [6] | Specific signal at 500 pg/mL [7] | Specific signal at 500 pg/mL [8] | Average of S/B [9] | Average of S/B [10] | binding result [11] | binding result [12] | Specific signal at 500 pg/mL [13] | Average of S/B [14] | Average of S/B [15] | Specific signal at 500 pg/mL [16] | Specific signal at 500 pg/mL [17] | Average of S/B [18] | Average of S/B [19] | Average of S/B [20] | also measured
1 | Monoclonal antibody 6A2.G7 (antibody, mouse IgG1, V domains shown, Murine IgG1 kappa from hybridoma; also called ATCC PTA-123093) VH: GADLVKPGASVKMSCKASGYTFSRYNMHWVKQTPGQGLEWIGTIYPGNGDTSYNEKFKGKATLTADKSSSIVYMQVSSLTSEASAVYYCARDYGSRYALDYWGQGTSVTVSS VL: SSLSASLGDRVTISCRASQDISNYLNWYQQKPDGTVKLLIYYTSRLHSGVPSRFSGSGSGTDYSLTISNLEQEDIATYFCQQGNTLPYTFGGGTKLEIK | 7 | 11700 | 347 | 3890 | 109 | 63 | 100 | 432 | 3 | 5 | no binding | no binding | 2410 | 31 | 5 | 347 | 283 | 89 | 1 | 4 | Specific signal at 500 pg/mL [21]: 6620; Specific signal at 500 pg/mL [22]: 6000; Kd [23]: 15 nM; Average of S/B [24]: 1; Specific signal at 500 pg/mL [25]: 10800; Average of S/B [26]: 205; Specific signal at 500 pg/mL [27]: 92; Specific signal at 500 pg/mL [28]: 217; Average of S/B [29]: 145
2 | Monoclonal antibody 1C6.E12.G8 (antibody, mouse IgG1, V domains shown, Murine IgG1 kappa from hybridoma; also called ATCC PTA-123091) VH: SGARELVKPGASVKLSCKTSGFTFNSSYITWLKQKPGQSLEWIAWIYAGNGGTTYNQKFTGKAQLTVDTSSSTAYMQFSSLTTEDSAIYYCASETYTNYWYFDVWGSGTTVTVSS VL: QSPASLSASVGETVTITCRASGNIHNYLAWYQQKQGKSPQLLVYNAKTLADGVPSRFSGSGSGTQYSLKINSLQPEDFGSYYCQHFWSTPYTFGGGTKLEIK | 1 | 80 | 73 | 75 | 1 | 1 | 70 | 92 | 1 | 1 | no binding | no binding | 10900 | 144 | 1 | 53 | 67 | 1 | 19 | 1 | Specific signal at 500 pg/mL [21]: 74; Specific signal at 500 pg/mL [22]: 54; Kd [23]: 9.76 nM; Average of S/B [24]: 1; Specific signal at 500 pg/mL [25]: 37500; Average of S/B [26]: 1; Specific signal at 500 pg/mL [27]: 967; Specific signal at 500 pg/mL [28]: 86; Average of S/B [29]: 449
3 | Monoclonal antibody 5C12.H8 (antibody, mouse IgG2b, V domains shown, Murine IgG2b kappa from hybridoma; also called ATCC PTA-123095) VH: GPGLVKPSQSLSLTCSVTGYSITSGYYWIWIRQFPGNKLEWMGYISYDGSNNYNPSLKNRISITRDTSKNQFFLKLNSVTTEDTATYYCARGNYYAMDYWGQGTSVTVSS VL: not shown | 1 | 77 | 78 | 60 | 1 | 1 | 100 | 68 | 1 | 1 | no binding | no binding | 5290 | 61 | 1 | 57 | 123 | 1 | 9 | 1 | Specific signal at 500 pg/mL [21]: 71; Specific signal at 500 pg/mL [22]: 66; Kd [23]: 10.8 nM; Average of S/B [24]: 1; Specific signal at 500 pg/mL [25]: 18400; Average of S/B [26]: 1; Specific signal at 500 pg/mL [27]: 596; Specific signal at 500 pg/mL [28]: 58; Average of S/B [29]: 253
